In patent publication US20190276561A1 (FUJIFILM WAKO PURE CHEMICAL, published 2019):
Values belong to the binder of their own block, whether it stands above or below them.

Experiments:
Integrin α6β1 = target: T1, Integrin α6β1 (Homo sapiens (Human), UniProt P23229 24-680; P05556 21-465); assay: peak shift in gel filtration chromatography
T1 construct: Antigen of the TS2/16 and SG/19 antibodies

[1] = target: T2, hepatocyte growth factor (HGF) (Homo sapiens (Human), UniProt P14210 388-728); assay: peak shift in gel filtration chromatography
T2 construct: Antigen of the t8E4 and t1E4 antibodies

[2] = target: T3, SORLA (neuroral sorting receptor) Vps10p domain (Homo sapiens (Human), UniProt Q92673 86-753); assay: peak shift in gel filtration chromatography
T3 construct: also called SORLA Vps10p domain
T3 sequence: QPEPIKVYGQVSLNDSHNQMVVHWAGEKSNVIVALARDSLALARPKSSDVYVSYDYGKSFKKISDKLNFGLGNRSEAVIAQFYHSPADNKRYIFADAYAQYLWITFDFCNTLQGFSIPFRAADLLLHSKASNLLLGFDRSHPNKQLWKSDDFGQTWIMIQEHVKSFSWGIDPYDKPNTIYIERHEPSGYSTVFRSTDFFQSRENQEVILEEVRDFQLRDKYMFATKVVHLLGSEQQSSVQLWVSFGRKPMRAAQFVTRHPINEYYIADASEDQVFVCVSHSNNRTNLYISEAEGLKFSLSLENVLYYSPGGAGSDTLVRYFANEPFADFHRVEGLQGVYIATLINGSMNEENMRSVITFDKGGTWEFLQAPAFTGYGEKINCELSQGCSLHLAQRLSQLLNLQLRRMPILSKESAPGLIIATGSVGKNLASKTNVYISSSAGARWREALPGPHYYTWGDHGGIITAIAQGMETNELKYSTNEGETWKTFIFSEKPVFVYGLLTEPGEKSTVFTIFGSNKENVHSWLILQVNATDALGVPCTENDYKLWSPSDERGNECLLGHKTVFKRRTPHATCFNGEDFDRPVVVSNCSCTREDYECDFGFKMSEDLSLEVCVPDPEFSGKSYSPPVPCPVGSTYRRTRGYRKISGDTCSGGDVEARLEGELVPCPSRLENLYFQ

[3] = target: T2, hepatocyte growth factor (HGF); assay: X-ray crystal structure of the complex
C8 peptide (PRGYPGQV) = target: T4, C8 peptide (PRGYPGQV); assay: affinity chromatography on immobilised C8 peptide, eluted with free C8
T4 construct: Antigen molecule of the P20.1 antibody
T4 peptide: PRGYPGQV

T2 sequence (P14210 other isoform, or with tags, fused parts or gaps limits assumed): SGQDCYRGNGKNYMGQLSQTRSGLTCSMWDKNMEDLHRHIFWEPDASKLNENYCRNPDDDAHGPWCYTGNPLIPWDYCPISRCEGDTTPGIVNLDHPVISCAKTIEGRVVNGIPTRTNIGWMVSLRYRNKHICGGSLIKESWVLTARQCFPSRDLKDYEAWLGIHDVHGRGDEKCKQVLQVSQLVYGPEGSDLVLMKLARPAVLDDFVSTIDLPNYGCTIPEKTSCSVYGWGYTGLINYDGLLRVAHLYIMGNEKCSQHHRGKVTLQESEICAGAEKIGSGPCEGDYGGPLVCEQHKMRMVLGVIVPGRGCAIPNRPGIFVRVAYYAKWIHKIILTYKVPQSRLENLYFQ
T1 sequence (P23229 other isoform, or with tags, fused parts or gaps limits assumed, chain 1 of 2): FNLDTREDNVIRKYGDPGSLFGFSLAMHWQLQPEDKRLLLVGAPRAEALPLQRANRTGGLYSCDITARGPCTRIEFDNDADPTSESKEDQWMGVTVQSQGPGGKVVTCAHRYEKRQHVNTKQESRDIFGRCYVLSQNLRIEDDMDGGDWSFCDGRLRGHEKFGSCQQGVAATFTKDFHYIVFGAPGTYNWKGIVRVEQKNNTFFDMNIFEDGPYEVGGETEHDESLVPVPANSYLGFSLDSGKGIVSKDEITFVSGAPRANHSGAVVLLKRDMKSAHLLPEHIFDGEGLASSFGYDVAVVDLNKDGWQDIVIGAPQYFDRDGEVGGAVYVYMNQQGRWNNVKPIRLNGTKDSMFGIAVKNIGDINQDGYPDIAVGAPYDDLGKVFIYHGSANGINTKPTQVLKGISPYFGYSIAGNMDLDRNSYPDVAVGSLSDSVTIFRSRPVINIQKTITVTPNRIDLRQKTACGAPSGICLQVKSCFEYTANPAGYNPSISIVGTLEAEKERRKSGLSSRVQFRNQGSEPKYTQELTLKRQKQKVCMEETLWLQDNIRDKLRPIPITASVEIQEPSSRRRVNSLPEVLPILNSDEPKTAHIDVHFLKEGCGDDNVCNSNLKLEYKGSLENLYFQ
T1 sequence (P05556 other isoform, or with tags, fused parts or gaps limits assumed, chain 2 of 2): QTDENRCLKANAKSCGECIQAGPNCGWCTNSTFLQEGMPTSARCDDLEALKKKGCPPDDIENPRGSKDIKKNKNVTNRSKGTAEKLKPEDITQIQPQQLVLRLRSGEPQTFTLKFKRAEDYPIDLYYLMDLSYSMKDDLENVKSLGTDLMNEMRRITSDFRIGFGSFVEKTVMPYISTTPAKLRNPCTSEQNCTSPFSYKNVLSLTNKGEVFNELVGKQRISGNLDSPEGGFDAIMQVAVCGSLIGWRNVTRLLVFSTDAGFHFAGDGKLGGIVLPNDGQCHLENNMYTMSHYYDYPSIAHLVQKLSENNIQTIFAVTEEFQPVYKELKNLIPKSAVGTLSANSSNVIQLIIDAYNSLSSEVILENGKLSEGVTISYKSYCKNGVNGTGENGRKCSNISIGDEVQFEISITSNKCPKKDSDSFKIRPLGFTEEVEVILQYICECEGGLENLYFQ

B2: t8E4 antibody-Fv-clasp (v2) (other)
VH: MKQVQLKESGPDLVQPSQTLSLTCTVSGFSLTGYGVHWVRQPPGKGLEWVGTLGWNDKKYYNSALKSRLSISRDTSKNQVFLKLSSLETEDTAMYYCTRDGGLLFAYYAMDYWGQGTSVTVCSGSDYEFLKSWTVEDLQKRLLALDPMMEQEIEEIRQKYQSKRQPILDAIEAK
VL: MDIQMTQTTSSLSASLGDRVTFSCRASQDISNYLNWYQQKPDGTVKLLIFYTSRLHSGVPSRFSGSGSGTDYSLTIANLEQEDFATYFCQQDSKHPFTFGSGTKLEIKRGSDYEFLKSWTVEDLQKRLLALDPMMEQEIEEIRQKYQCKRQPILDAIEAK
notes: also called Fv-clasp (v2) against t8E4 antibody
- binding result [1]: binds

B4: SG/19 antibody-Fv-clasp (v2) (other)
VH: MQVHLQQSGAELMKPGASVKISCKATGYTFTSYWIEWVKQRPGHGLEWLGEILPGSGYIHYNEKFKGKATFTTDTSSNTAYMQLSSLTSEDSAVYYCSRALALYAMDYWGQGTSVTVCSGSDYEFLKSWTVEDLQKRLLALDPMMEQEIEEIRQKYQSKRQPILDAIEAK
VL: MDIVMTQATPSIPVTPGESVSISCRSNKSLLHSNGNTYLYWFLQRPGQSPRLLIFRMSNLASGVPDRFSGSGSGTAFTLRISRVEAADVGIYFCLQHLEYPFTFGAGTKLELKRGSDYEFLKSWTVEDLQKRLLALDPMMEQEIEEIRQKYQCKRQPILDAIEAK
notes: also called Fv-clasp (v2) against SG/19 antibody
- binding result (Integrin α6β1): binds

B6: P20.1 antibody-Fv-clasp (v1) obtained in the E. coli expression system (Comparative Example 1) (other)
VH: MQIQLVQSGPEVQKPGETVRISCKASGYTFTTAGMQWVQKMPGKSLKWIGWINTRSGVPKYAEDFKGRFAFSLETSASIAYLHINNLKNEDTATYFCAREGPGFVYWGQGTLVTVSSGSDYEFLKSWTVEDLQKRLLALDPMMEQEIEEIRQKCQSKRQPILDAIEAK
VL: MGQTVVTQESALTTSPGETVTLTCRSSTGAVTTSNYANWVQEKPDHLFTGLIVGTNNRVPGVPPRFSGSLIEDKAALTITGAQTEDEAIYFCALWYSNHWVFGGGTKLTVLGGSDYEFLKSWTVEDLQKRLLALDPMCEQEIEEIRQKYQSKRQPILDAIEAK
notes: Fv-clasp fragment antibody: heterodimer of VH-SARAH and VL-SARAH linked by a disulfide between Cys35 and Cys24 of the two SARAH domains; also called Fv-clasp (v1) against P20.1 antibody; Fv-clasp (v1) of P20.1 antibody
- binding result (C8 peptide (PRGYPGQV)): binds

The next lines start with the values.

- binding result (Integrin α6β1): binds
B1: TS2/16 antibody-Fv-clasp (v2) (other)
VH: MDVKLVESGGGLVKPGGSLKLSCAASGFTFSSYTMSWVRQTPEKRLEWVATISSGGSYTYYPDSVKGRFTISRDKAKNTLYLQMGSLKSEDTAMYYCTRIGYDEDYAMDHWGQGTSVTVCSGSDYEFLKSWTVEDLQKRLLALDPMMEQEIEEIRQKYQSKRQPILDAIEAK
VL: MQIVVTQRPTTMAASPGDKIIITCSVSSIISSNYLHWYSQKPGFSPKLLIYRTSNLASGVPPRFSGSGSGTSYSLTIGTMEAEDVATYYCQQGSDIPLTFGDGTKLDLKRGSDYEFLKSWTVEDLQKRLLALDPMMEQEIEEIRQKYQCKRQPILDAIEAK
notes: also called Fv-clasp (v2) against TS2/16 antibody

- binding result [2]: binds
B3: 93201 antibody-Fv-clasp (v2) (other)
VH: MEVQLQQSGAELVKPGASVKLSCTASGFNIQDTYIHWVKQRPEQGLDWIGRIDPANGNTKYDPNFQGKATITADTSSNTAYLQLSSLASEDTAVYYCATSNYYSRGAMDYWGQGTSVTVCSGSDYEFLKSWTVEDLQKRLLALDPMMEQEIEEIRQKYQSKRQPILDAIEAK
VL: MDIVLTQSPASLAVSLGQRATISCRASESVEYYGTNLMHWYQQKPGQPPKLLIYVASTVKSGVPARFSGSGSGTDFSLNIHPVEEDDIAMYFCQQSRKVPWTFGGGTRLEIKRGSDYEFLKSWTVEDLQKRLLALDPMMEQEIEEIRQKYQCKRQPILDAIEAK

- binding result [3]: binds
B5: t1E4 antibody-Fv-clasp (v2) (other)
VH: MKQGQLQQSGPELVKPGASVKISCKASGYVFSSSWMNWVKQRPGKGLEWIGRIYPGYGDTNYNGKFKGKATLTADKSSSTAYMQLSSLTSEDSAVYFCVREELGPYWYFDVWGAGTTVTVCSGSDYEFLKSWTVEDLQKRLLALDPMMEQEIEEIRQKYQSKRQPILDAIEAK
VL: MDVVMTQTPLSLPVSLGDQASISCRSSQSLVHSNGNTYLHWYLQKPGQSPKLLIYKVSNRFSGVPDRFSGSGSGTDFTLKISRVEAEDLGVYFCSQSTHVPYTFGSGTKLEIKRGSDYEFLKSWTVEDLQKRLLALDPMMEQEIEEIRQKYQCKRQPILDAIEAK
notes: also called Fv-clasp (v2) against t1E4 antibody
